In publication PMC3754857 one finds fold decrease of OX40L binding against cells expressing OX40-WT data, which are given here for one substance.

The experiment concerns the target OX40-R65C (human OX40 with p.Arg65Cys), expressed ectopically on cells (human) (UniProt P43489). The experiment in a line: flow cytometry on cells.
Chain of UniProt P43489 (P43489 29-277 R65C): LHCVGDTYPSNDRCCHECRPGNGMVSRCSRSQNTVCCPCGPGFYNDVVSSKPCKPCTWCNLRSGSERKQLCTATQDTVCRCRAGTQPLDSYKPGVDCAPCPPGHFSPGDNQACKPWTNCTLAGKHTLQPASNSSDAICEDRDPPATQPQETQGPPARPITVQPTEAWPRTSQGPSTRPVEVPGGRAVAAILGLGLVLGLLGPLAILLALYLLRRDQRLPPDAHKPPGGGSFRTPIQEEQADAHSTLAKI

“biotinylated recombinant soluble human OX40 ligand (OX40L) (from UniProt P23510 51-183)” had a fold decrease of OX40L binding against cells expressing OX40-WT of 16 fold.
